Data reported in article PMC12638815 (2025).
Where a chain is given by its changes, count along the chain named.

B1: VHH B09 (VHH)
VHH: QVQLVESGGGLVQAGGSLRLSCATSRSTFSSNTIGWYRQAPGKQRELVASISTSGNTYYADSVKGRFAISRDNAENTVYLQMNSLKPEDTAVYYCNTPSRRISNFWGQGTQVTVSS
B2: VHH B07 (VHH)
VHH: B1 VHH with Q1E, V5Q, E6A, T24A, S31T, A60P
B3: VHH B10 (VHH)
VHH: QVQLVESGGGLVQAGDSLRLSCAASGRTFSSYAMGWFRQALGKEREFVAVISGSGTSTYYTDSVKGRFTISRDNAKNTVYLQMNSLKPEDTAVYYCARAKGFSTIYNQDEGRYDYWGQGTQVTVSS

molecular target: hACE2 peptidase domain fused to a human Fc from IgG (human); test: BLI
Sequence (Q9BYF1 19-615): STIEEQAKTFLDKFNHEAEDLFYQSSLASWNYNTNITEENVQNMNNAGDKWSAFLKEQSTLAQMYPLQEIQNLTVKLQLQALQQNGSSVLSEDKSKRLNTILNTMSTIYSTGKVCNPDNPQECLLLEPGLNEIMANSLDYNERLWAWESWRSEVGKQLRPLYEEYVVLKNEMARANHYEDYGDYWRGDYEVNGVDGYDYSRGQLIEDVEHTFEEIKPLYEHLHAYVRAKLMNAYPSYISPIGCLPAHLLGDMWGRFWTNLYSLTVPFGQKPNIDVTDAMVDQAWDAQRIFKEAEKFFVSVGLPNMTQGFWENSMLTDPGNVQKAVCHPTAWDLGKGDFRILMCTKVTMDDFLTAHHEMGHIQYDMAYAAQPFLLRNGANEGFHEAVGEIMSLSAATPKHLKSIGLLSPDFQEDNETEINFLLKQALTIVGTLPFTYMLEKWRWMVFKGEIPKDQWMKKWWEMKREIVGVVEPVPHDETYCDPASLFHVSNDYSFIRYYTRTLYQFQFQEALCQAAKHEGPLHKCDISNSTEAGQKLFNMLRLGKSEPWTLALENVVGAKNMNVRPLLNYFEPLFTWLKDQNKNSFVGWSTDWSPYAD

| Binder | koff [s⁻¹] |
| --- | --- |
| B1 | 0.000106 |
| B2 | 0.0001 |
| B3 | 0.000411 |
